Results from the supplement of paper PMC10126150.
± gives the standard deviation of the averaged measurements.

Test system: ATP
Experiment: switch fluorescence ratio, 500 uM ATP over buffer (Cy3 cluster intensity, sum of 5 cycles each) (fold (ratio)); higher = stronger signal-on switching upon ATP binding; sequences stand for … in TCGTCGGCAGCGTCAGATGTGTATAAGAGACAGTTTTTTTTTTTTTTTTTTTTTTTTT…TC
Details: aptamer strand: ATP DNA aptamer (quencher-CACCTGGGGGAGTATTGCGGAGGAAGG + anchor), 100 nM annealed; ATP concentration: 500 uM
Summary of the method: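 The fluorescence ratio divides summed target-cycle Cy3 intensity by summed buffer-cycle Cy3 intensity for each cluster and is averaged per switch-domain sequence. Cy3-labelled switching-strand clusters on a modified Illumina MiSeq flow-cell were annealed to 100 nM quencher-labelled ATP aptamer, then imaged in selection buffer and again after 15 min with 500 uM ATP at 22 °C. Five such cycles were run, with NaOH stripping and re-annealing between them, and clusters outside 100-1000 RFU were excluded.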
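Note: ATP exposure 15 min at 22 °C before imaging.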

Row | Sequence | switch fluorescence ratio
1 | GGGGTCTACC | 0.974 ± 0.014
2 | GGGGTGAGCT | 0.981 ± 0.03
3 | GGGGTGAGTA | 0.98 ± 0.053
4 | GGGGTGCCGG | 0.977 ± 0.092
5 | GGGGTGGAAT | 1.03 ± 0.012
6 | GGGGTGGCGC | 0.964 ± 0.036
7 | GGGGTGGCTG | 0.955 ± 0.023
8 | GGGGTGGGAA | 0.9795 ± 0.0094
9 | GGGGTGGGAC | 1.044 ± 0.006
10 | GGGGTGGGCT | 0.956 ± 0.031
11 | GGGGTGTGGG | 1 ± 0.018
12 | GGGGTTACAT | 0.9919 ± 0.0072
13 | GGGGTTAGGT | 1.01 ± 0.031
14 | GGGGTTCAGA | 0.9846 ± 0.0041
15 | GGGGTTCCTT | 1 ± 0.034
16 | GGGGTTCTAG | 0.999 ± 0.0042
17 | GGGGTTCTTA | 1.02 ± 0.091
18 | GGGGTTCTTT | 1.09 ± 0.14
19 | GGGGTTGGAC | 0.9851 ± 0.0016
20 | GGGGTTGGAG | 0.979 ± 0.022
21 | GGGGTTGTCG | 0.989 ± 0.1
22 | GGGGTTTATA | 0.997 ± 0.026
23 | GGGGTTTCGT | 1.01 ± 0.067
24 | GGGGTTTGAG | 1.001 ± 0.0057
25 | GGGGTTTTAG | 1.01 ± 0.018

Row | Sequence | switch fluorescence ratio
26 | GGGTAAAAAA | 1.02 ± 0.045
27 | GGGTAAAGAT | 1.02 ± 0.021
28 | GGGTAAAGGG | 1 ± 0.045
29 | GGGTAAAGTT | 1.01 ± 0.027
30 | GGGTAAATCT | 1.04 ± 0.026
31 | GGGTAACCGA | 0.9832 ± 0.0019
32 | GGGTAACGGC | 1.01 ± 0.089
33 | GGGTAAGAAA | 0.9865 ± 0.0041
34 | GGGTAAGATC | 1.022 ± 0.0083
35 | GGGTAAGTTT | 1.007 ± 0.0044
36 | GGGTAATGGG | 0.982 ± 0.024
37 | GGGTAATTAC | 1.048 ± 0.0053
38 | GGGTAATTTG | 1 ± 0.03
39 | GGGTACCGTA | 0.959 ± 0.068
40 | GGGTACTGTA | 1.09 ± 0.041
41 | GGGTACTGTG | 0.971 ± 0.015
42 | GGGTACTTAG | 1.05 ± 0.041
43 | GGGTAGAAAG | 0.97 ± 0.013
44 | GGGTAGAATT | 1.03 ± 0.039
45 | GGGTAGCGGG | 1.01 ± 0.033
46 | GGGTAGGCAG | 1.18 ± 0.25
47 | GGGTAGGCGG | 0.941 ± 0.029
48 | GGGTAGGGGA | 1 ± 0.049
49 | GGGTAGGGGT | 1.02 ± 0.074
50 | GGGTAGGTG | 1.13 ± 0.039

Row | Sequence | switch fluorescence ratio
51 | GGGTATAAGA | 0.9976 ± 0.0075
52 | GGGTATAGGA | 0.944 ± 0.033
53 | GGGTATAGTC | 1.02 ± 0.074
54 | GGGTATCGGG | 0.98857 ± 0.00067
55 | GGGTATCGTA | 1.01 ± 0.018
56 | GGGTATCTGT | 1.01 ± 0.032
57 | GGGTATGGCC | 1.01 ± 0.025
58 | GGGTATGGGT | 0.995 ± 0.043
59 | GGGTATGTAA | 1.01 ± 0.066
60 | GGGTATTCTG | 0.98 ± 0.053
61 | GGGTATTGCA | 0.996 ± 0.018
62 | GGGTATTGCG | 0.977 ± 0.083
63 | GGGTATTGTA | 0.999 ± 0.02
64 | GGGTCAAAGA | 0.9705 ± 0.0086
65 | GGGTCAAAGT | 1.01 ± 0.013
66 | GGGTCAATGG | 1.04 ± 0.031
67 | GGGTCAGAAA | 1.04 ± 0.11
68 | GGGTCAGGCT | 0.981 ± 0.027
69 | GGGTCATGGG | 0.989 ± 0.033
70 | GGGTCCAAAT | 1.02 ± 0.04
71 | GGGTCCAAGG | 1.03 ± 0.029
72 | GGGTCCCCGC | 1.12 ± 0.056
73 | GGGTCGCCTG | 0.992 ± 0.033
74 | GGGTCGTAGG | 1.002 ± 0.0011
75 | GGGTCTCCAT | 1.02 ± 0.03

Row | Sequence | switch fluorescence ratio
76 | GGGTCTGGAG | 1 ± 0.034
77 | GGGTCTGGGG | 0.995 ± 0.022
78 | GGGTCTTCTC | 1.01 ± 0.053
79 | GGGTCTTGTG | 0.989 ± 0.022
80 | GGGTGAAATG | 0.994 ± 0.023
81 | GGGTGAACTT | 0.988 ± 0.033
82 | GGGTGACATT | 0.997 ± 0.094
83 | GGGTGAGAGG | 0.9944 ± 0.0075
84 | GGGTGAGGCA | 0.9988 ± 0.0086
85 | GGGTGATATT | 0.996 ± 0.026
86 | GGGTGATCGT | 0.997 ± 0.013
87 | GGGTGATGGC | 1.01 ± 0.013
88 | GGGTGCAAGC | 1.058 ± 0.0049
89 | GGGTGCATGC | 1.07 ± 0.084
90 | GGGTGCGGCT | 1.11 ± 0.14
91 | GGGTGCGGGC | 1.04 ± 0.098
92 | GGGTGGACAC | 0.947 ± 0.065
93 | GGGTGGAGTT | 0.9672 ± 0.0046
94 | GGGTGGATGA | 1.03 ± 0.042
95 | GGGTGGATTG | 0.983 ± 0.039
96 | GGGTGGGATG | 0.984 ± 0.017
97 | GGGTGGGCGG | 0.974 ± 0.022
98 | GGGTGGGCTC | 0.971 ± 0.026
99 | GGGTGGGGGT | 1.03 ± 0.018
100 | GGGTGGGTA | 1.03 ± 0.03

Row | Sequence | switch fluorescence ratio
101 | GGGTGGGTTA | 1.01 ± 0.038
102 | GGGTGGTAAG | 0.997 ± 0.051
103 | GGGTGGTCTG | 1.01 ± 0.031
104 | GGGTGGTGGT | 0.981 ± 0.043
105 | GGGTGTCAGC | 1.02 ± 0.017
106 | GGGTGTGCGC | 1.0134 ± 5.8e-05
107 | GGGTGTGCGG | 0.972 ± 0.038
108 | GGGTGTGGG | 0.986 ± 0.05
109 | GGGTGTGTGG | 1 ± 0.017
110 | GGGTGTTAAC | 0.981 ± 0.057
111 | GGGTGTTAGT | 1 ± 0.016
112 | GGGTGTTCGG | 0.979 ± 0.017
113 | GGGTTAAGAT | 0.997 ± 0.0054
114 | GGGTTAAGTG | 1.02 ± 0.018
115 | GGGTTAGAGA | 0.9668 ± 0.0032
116 | GGGTTAGAGG | 0.9959 ± 0.0071
117 | GGGTTAGATC | 1.03 ± 0.039
118 | GGGTTAGCTT | 0.98 ± 0.031
119 | GGGTTAGTTG | 0.995 ± 0.046
120 | GGGTTATTTT | 0.999 ± 0.043
121 | GGGTTCGACA | 0.998 ± 0.019
122 | GGGTTCTAGT | 0.9972 ± 0.008
123 | GGGTTCTTAC | 0.999 ± 0.011
124 | GGGTTGAACG | 0.967 ± 0.03
125 | GGGTTGAGCG | 1.02 ± 0.012

Row | Sequence | switch fluorescence ratio
126 | GGGTTGATTT | 0.958 ± 0.053
127 | GGGTTGCTTG | 0.981 ± 0.049
128 | GGGTTGCTTT | 1 ± 0.024
129 | GGGTTGGAGT | 0.9965 ± 0.0081
130 | GGGTTGGGAA | 0.988 ± 0.023
131 | GGGTTGGGTC | 0.996 ± 0.029
132 | GGGTTGTAGC | 0.9909 ± 0.0027
133 | GGGTTGTCGC | 1.01 ± 0.024
134 | GGGTTGTGAA | 0.994 ± 0.037
135 | GGGTTGTGGT | 1.01 ± 0.026
136 | GGGTTGTTCT | 0.9792 ± 0.0087
137 | GGGTTTAATA | 0.996 ± 0.034
138 | GGGTTTAGAT | 0.9854 ± 0.0059
139 | GGGTTTATCA | 1.03 ± 0.03
140 | GGGTTTATGC | 0.9921 ± 0.0067
141 | GGGTTTCAGG | 1.017 ± 0.0021
142 | GGGTTTCAGT | 0.9503 ± 0.0066
143 | GGGTTTCATG | 0.995 ± 0.024
144 | GGGTTTGAAT | 0.978 ± 0.032
145 | GGGTTTGAGG | 0.9806 ± 0.0072
146 | GGGTTTGCAC | 1.03 ± 0.026
147 | GGGTTTGCAT | 1.02 ± 0.034
148 | GGGTTTGCCT | 1.0216 ± 0.0002
149 | GGGTTTGGCG | 0.999 ± 0.2
150 | GGGTTTGTTG | 0.988 ± 0.026

Row | Sequence | switch fluorescence ratio
151 | GGGTTTTAAG | 1 ± 0.021
152 | GGGTTTTACT | 0.991 ± 0.053
153 | GGGTTTTCTG | 0.945 ± 0.017
154 | GGGTTTTCTT | 0.961 ± 0.031
155 | GGGTTTTTCG | 0.994 ± 0.062
156 | GGTAAAAATT | 0.98453 ± 0.00014
157 | GGTAAAAGCT | 1.03 ± 0.057
158 | GGTAAAGGGT | 0.991 ± 0.016
159 | GGTAAAGGTA | 1 ± 0.029
160 | GGTAAATGTG | 1.03 ± 0.072
161 | GGTAACAGCT | 1.04 ± 0.051
162 | GGTAACAGTG | 1.07 ± 0.085
163 | GGTAAGACGT | 0.999 ± 0.038
164 | GGTAAGATAG | 1.01 ± 0.017
165 | GGTAAGGGGG | 0.99 ± 0.031
166 | GGTAATGCTT | 1 ± 0.05
167 | GGTAATTCTG | 0.9837 ± 0.0033
168 | GGTAATTTGG | 1 ± 0.023
169 | GGTACAGAAT | 0.9997 ± 0.0012
170 | GGTACAGAGC | 1 ± 0.064
171 | GGTACCAGGC | 1.019 ± 0.0021
172 | GGTACGAAGT | 1.01 ± 0.027
173 | GGTACGGATC | 1.03 ± 0.018
174 | GGTACGGGGT | 1 ± 0.028
175 | GGTACTATCG | 0.961 ± 0.071

Row | Sequence | switch fluorescence ratio
176 | GGTACTATT | 0.991 ± 0.04
177 | GGTACTGGTA | 0.984 ± 0.057
178 | GGTACTTAGG | 1.06 ± 0.031
179 | GGTACTTGGG | 0.984 ± 0.033
180 | GGTACTTTTT | 1.07 ± 0.14
181 | GGTAGAGGGG | 0.9628 ± 0.0078
182 | GGTAGAGGTT | 0.985 ± 0.019
183 | GGTAGATGGT | 1.01 ± 0.012
184 | GGTAGGGTGG | 1.02 ± 0.048
185 | GGTAGGTGTC | 0.985 ± 0.031
186 | GGTAGGTGTT | 1.04 ± 0.037
187 | GGTAGTAAGA | 1.01 ± 0.047
188 | GGTAGTAATT | 0.998 ± 0.0029
189 | GGTAGTCTTT | 0.996 ± 0.02
190 | GGTAGTGAGC | 1.02 ± 0.02
191 | GGTAGTGCGT | 0.968 ± 0.043
192 | GGTAGTTAGG | 1.03 ± 0.013
193 | GGTATAAAGA | 0.984 ± 0.049
194 | GGTATAAGGG | 0.997 ± 0.02
195 | GGTATAATGG | 0.971 ± 0.03
196 | GGTATAATTA | 0.964 ± 0.024
197 | GGTATAATTT | 1.04 ± 0.044
198 | GGTATACTGT | 0.975 ± 0.029
199 | GGTATCAAGT | 0.9675 ± 0.0076
200 | GGTATGGAGC | 0.971 ± 0.039
